Test results published in US20240385190A1 (EISAI R AND D MANAGEMENT, published 2024).
Where a chain is given by its changes, count along the chain named. Several values for one entry are separate records, joined by “and”; a condition that tells them apart may be missing. Identical values can stand only once.

B1: KPEP11_18 (antibody, V domains shown)
VH: QSLEESGGRLVTPGTPLTLTCTISGFSLSSFYINWVRQAPGRGLEWIGIIYPDIDATDYASWVKGRFTISKTSTTVDLKITSPTTEDTATYFCARSDVDYYTTRLDLWGQGTLVTVSS
VL: DPMMTQTASPVSAAVGGTVSISCQSNKSVYSNWLSWFQQKPGQPPKLLIYGASTLASGVPSRFKGSGSGTQFTLTVSDVQCDDAATYFCLGGYRDNSDNAFGGGTEVVVKG
notes: Rabbit IgG/kappa; Used coated or HRP-labeled in the sandwich ELISAs; also called anti-human EphA4 rabbit monoclonal antibody KPEP11_18; HRP-labeled KPEP11_18
B2: KPEP11_20 (antibody, V domains shown)
VH: B1 VH with I23V, S29N, S30N, F31Y, I33M, R42K, A56T, V98I, V116I
VL: AQVLTQTPSPVSAAVGGTVSINCQSSPSVYNNNWLSWFQQKPGQPPKLLIYGASTLASGVPSRFKGSGSGTQFTLTISDVQCDDAATYYCAGGYDSNSDTAFGGGTELEILG
notes: Rabbit IgG; also called anti-human EphA4 rabbit monoclonal antibody KPEP11_20
B3: KPEP11_02 (antibody, V domains shown)
VH: QSLEESGGRLVTPGGSLTLTCTVSGIDLSSYAMSWVRQAPEKGLEWIGFINNYGTYYASWAKGRFTISKTSTTVDLKVTSLTTEDTATYFCVRGGRSPNYDIVSGDIWGPGTLVTVSS
VL: YVMMTQTPSSVSEPVGGTVTIKCQASQNIYNSLAWYQQKPGQRPKLLIADASELASGVPQRFSGSGSGTQFTLTISDLECADAATYYCQSSSAGDSYVGGFGGGTEVVVKG
notes: Rabbit IgG; also called anti-human EphA4 rabbit monoclonal antibody KPEP11_02
B4: KPEP11_05 (antibody, V domains shown)
VH: B3 VH
VL: B3 VL
notes: Rabbit IgG; also called anti-human EphA4 rabbit monoclonal antibody KPEP11_05
B5: KPEP11_12 (antibody, V domains shown)
VH: QSLEESGGRLVTPGTPLTLTCTVSGFSLSSYHMSWVRQAPGKGLEWIGIIYRSGNTYYANWAKGRFTISKTSTTVDLKITSPTTEDTATYFCARESSTFYGMDLWGPGTLVTVSS
VL: YVMMTQTPSSVSAAVGGTVTINCQASQSVYGNNELAWYQQKPGQRPKLLIYRASTLASGVPSRFKGSGSGTEFTLTISDLECADAATYYCLGYKSDDYTFGGGTKVEIKG
notes: Rabbit IgG; also called anti-human EphA4 rabbit monoclonal antibody KPEP11_12
B6: KPEP11_13 (antibody, V domains shown)
VH: B5 VH
VL: B5 VL
notes: Rabbit IgG; also called anti-human EphA4 rabbit monoclonal antibody KPEP11_13
B7: KPEP11_01 (antibody, V domains shown)
VH: B5 VH with L3V, Y58S
VL: B5 VL
notes: also called anti-human EphA4 rabbit monoclonal antibody KPEP11_01
B8: KPEP11_07 (antibody, V domains shown)
VH: QEQLKESGGRLVTPGGSLTLTCTVSGIDLSSYAMSWVRQAPEKGLEWIGFINMYGTYYASWAKGRFTISRTSTTVDLKVTSLTTEDTATYFCVRGGRSPDYDIVSGDIWGPGTLVTVSS
VL: B3 VL
notes: Rabbit IgG; also called anti-human EphA4 rabbit monoclonal antibody KPEP11_07
B9: KPEP11_09 (antibody, V domains shown)
VH: B5 VH with L3V, Y58S
VL: B5 VL
notes: Rabbit IgG; also called anti-human EphA4 rabbit monoclonal antibody KPEP11_09

target: T1, Rabbit; assay: ELISA
T1 construct: also called rabbit EphA4 extracellular domain-SEAP-His protein
Experimental: (§1) For the anti-human EphA4 monoclonal antibodies produced in Example 1, evaluation of binding activity to various EphA4 was performed according to the following steps. Mouse anti-6-His antibodies (R&D) were coated on the wells of a 96-well plate (Thermo […]). After incubating at room temperature for 1 hour, the wells were blocked at 4° C. overnight with 1% Block Ace (KAC). After washing three times with 0.02% Tween 20/PBS, the wells were seeded with mouse EphA4 extracellular domain-SEAP-His protein, rat EphA4 extracellular domain-SEAP-His protein, rabbit EphA4 extracellular domain-SEAP-His protein, monkey EphA4 extracellular domain-SEAP-His protein, human EphA4 extracellular domain-SEAP-His protein, or SEAP-His protein (final concentration 1 nM), and this was incubated at room temperature for 1 hour. After washing three times, anti-human EphA4 rabbit monoclonal antibody (10 pg/mL) was added, and this was incubated at room temperature for about 1 hour. After washing three times, horseradish peroxidase labeled goat anti-rabbit IgG polyclonal antibody (abcam) was added, and this was incubated at room temperature for 1 hour. After washing three times, TMBZ (3,3′,5,5′-tetramethylbenzidine, KPL) solution was added to the wells, and this was incubated for 3 minutes at room temperature. Equal amounts of quenching solution (2 N H₂SO₄, FUJIFILM Wako) were added to the wells, and absorbance at 450 nm and 650 nm were read with a microplate reader (Thermo […]).

Compared with B1, B2 is lower in absorbance: 0.059 for the first, 0.046 for the second.

Compared with B3, B4 is lower in absorbance: 0.04 for the first, 0.035 for the second.

Compared with B5, B6 is higher in absorbance: 0.055 for the first, 0.083 for the second.

B7 gave an absorbance of 0.045.

target: T2, Rat; assay: ELISA
T2 construct: also called rat EphA4 extracellular domain-SEAP-His protein
Experimental: as §1

Going from B1 to B2, the absorbance falls from 0.067 to 0.062.

First: B8
Second: B4
The absorbance of the first is higher: 0.044 for the first, 0.043 for the second.

Going from B5 to B6, the absorbance rises from 0.054 to 0.086.

Compared with B9, B7 is lower in absorbance: 0.064 for the first, 0.042 for the second.

target: T3, Mouse; assay: ELISA
T3 construct: also called mouse EphA4 extracellular domain-SEAP-His protein
Experimental: as §1

Compared with B2, B3 is lower in absorbance: 0.052 for the first, 0.048 for the second.

B8 and B4 are the same in absorbance: 0.045 for the first, 0.045 for the second.

Going from B5 to B6, the absorbance rises from 0.059 to 0.082.

Going from B9 to B7, the absorbance falls from 0.079 to 0.049.

target: T4, SEAP; assay: ELISA
T4 construct: negative control antigen; also called SEAP-His protein
Experimental: as §1

Compared with B1, B2 is higher in absorbance: 0.054 for the first, 0.067 for the second.

First: B3
Second: B8
The absorbance of the first is higher: 0.071 for the first, 0.05 for the second.

Going from B4 to B5, the absorbance rises from 0.043 to 0.067.

Compared with B6, B9 is lower in absorbance: 0.099 for the first, 0.07 for the second.

In the case of B7, the absorbance is reported as 0.052.

target: T5, human EphA4 extracellular domain-SEAP-His protein (human); assay: ELISA
Experimental: as §1

T5 sequence (chain, as listed by the source limits assumed): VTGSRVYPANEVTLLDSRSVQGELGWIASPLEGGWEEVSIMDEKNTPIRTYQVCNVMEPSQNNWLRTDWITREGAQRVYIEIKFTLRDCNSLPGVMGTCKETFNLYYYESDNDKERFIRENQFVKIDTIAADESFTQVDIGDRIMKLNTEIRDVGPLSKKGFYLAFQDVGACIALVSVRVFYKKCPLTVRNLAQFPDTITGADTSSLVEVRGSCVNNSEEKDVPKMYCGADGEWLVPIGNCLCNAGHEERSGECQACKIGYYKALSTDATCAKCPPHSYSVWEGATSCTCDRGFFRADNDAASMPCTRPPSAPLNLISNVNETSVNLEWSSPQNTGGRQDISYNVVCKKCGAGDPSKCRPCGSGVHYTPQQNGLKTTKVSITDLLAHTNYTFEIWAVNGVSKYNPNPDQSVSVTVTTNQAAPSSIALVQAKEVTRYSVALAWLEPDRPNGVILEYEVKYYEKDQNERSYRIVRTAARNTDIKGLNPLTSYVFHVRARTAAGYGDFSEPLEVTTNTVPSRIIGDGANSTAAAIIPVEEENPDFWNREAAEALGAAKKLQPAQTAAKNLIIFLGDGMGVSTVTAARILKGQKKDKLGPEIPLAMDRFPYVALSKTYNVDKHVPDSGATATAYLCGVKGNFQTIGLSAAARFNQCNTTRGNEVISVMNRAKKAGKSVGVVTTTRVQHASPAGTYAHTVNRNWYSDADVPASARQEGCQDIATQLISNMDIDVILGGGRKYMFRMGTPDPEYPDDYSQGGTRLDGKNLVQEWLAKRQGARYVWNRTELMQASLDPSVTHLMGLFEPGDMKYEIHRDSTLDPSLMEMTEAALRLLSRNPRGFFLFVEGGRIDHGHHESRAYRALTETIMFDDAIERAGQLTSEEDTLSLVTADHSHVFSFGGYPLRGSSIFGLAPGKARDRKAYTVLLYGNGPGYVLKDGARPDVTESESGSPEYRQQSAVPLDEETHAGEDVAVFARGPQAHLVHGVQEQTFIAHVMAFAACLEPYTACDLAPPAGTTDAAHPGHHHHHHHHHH

Compared with B1, B2 is lower in absorbance: 1.23 for the first, 1.16 for the second.

Compared with B3, B8 is lower in absorbance: 1.25 for the first, 1.22 for the second.

First: B5
Second: B6
The absorbance of the first is higher: 1.22 for the first, 1.18 for the second.

Going from B9 to B7, the absorbance rises from 1.14 to 1.21.

target: T6, monkey EphA4 extracellular domain-SEAP-His protein (monkey); assay: ELISA
T6 construct: the fusion as a whole has none; not shown: SEAP-His part
Experimental: as §1

T6 sequence (chain, as listed by the source): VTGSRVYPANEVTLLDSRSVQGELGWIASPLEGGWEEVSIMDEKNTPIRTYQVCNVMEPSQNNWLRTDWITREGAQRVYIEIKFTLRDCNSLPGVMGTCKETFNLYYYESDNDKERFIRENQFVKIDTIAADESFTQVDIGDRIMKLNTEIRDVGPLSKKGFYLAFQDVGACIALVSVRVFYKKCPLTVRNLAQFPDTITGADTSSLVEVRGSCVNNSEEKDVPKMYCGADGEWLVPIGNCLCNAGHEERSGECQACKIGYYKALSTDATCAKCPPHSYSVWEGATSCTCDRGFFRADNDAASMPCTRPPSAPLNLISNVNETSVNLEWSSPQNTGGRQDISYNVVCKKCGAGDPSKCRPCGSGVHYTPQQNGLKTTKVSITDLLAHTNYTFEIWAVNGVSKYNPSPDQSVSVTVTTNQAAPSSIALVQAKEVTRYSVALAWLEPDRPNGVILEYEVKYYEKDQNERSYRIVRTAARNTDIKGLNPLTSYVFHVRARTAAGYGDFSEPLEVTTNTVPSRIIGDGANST

Compared with B1, B2 is lower in absorbance: 1.18 for the first, 1.15 for the second.

Compared with B3, B8 is lower in absorbance: 1.2 for the first, 1.18 for the second.

Compared with B4, B5 is lower in absorbance: 1.24 for the first, 1.19 for the second.

Compared with B6, B9 is lower in absorbance: 1.17 for the first, 1.15 for the second.

Binder B7 has an absorbance of 1.18.

target: FN1; assay: ELISA
Experimental: (§2) For the anti-human EphA4 monoclonal antibodies produced in Example 1, evaluation of binding activity to various EphA4 was performed according to the following steps. Mouse anti-6-His antibodies (R&D) were coated on the wells of a 96-well plate (Thermo […]). After incubating at room temperature for 1 hour, the wells were blocked at room temperature for 1 hour with 1% Block Ace (KAC). After washing three times with 0.02% Tween 20/PBS, the wells were seeded with human EphA4 extracellular domain-MBP-His protein, human EphA4 ligand binding domain-MBP-His protein, human EphA4 fibronectin III-type domain 1-MBP-His protein, human EphA4 fibronectin III-type domain 2-MBP-His protein, or MBP-His protein (final concentration 1 nM), and this was incubated at room temperature for 1 hour. After washing three times, anti-human EphA4 rabbit monoclonal antibody (10 pg/mL) was added, and this was incubated at room temperature for 1 hour. After washing three times, horseradish peroxidase labeled goat anti-rabbit IgG polyclonal antibody (abcam) was added, and this was incubated at room temperature for 1 hour. After washing three times, TMBZ (3,3′,5,5′-tetramethylbenzidine, KPL) solution was added to the wells, and this was incubated for four and a half minutes at room temperature. Equal amounts of quenching solution (2 N H₂SO₄, FUJIFILM Wako) were added to the wells, and absorbance at 450 nm and 650 nm were read with a microplate reader (Thermo […]).

Going from B1 to B2, the absorbance falls from 0.222 to 0.207.

Going from B3 to B8, the absorbance rises from 0.213 to 0.226.

Compared with B4, B5 is higher in absorbance: 0.213 for the first, 0.255 for the second.

First: B6
Second: B9
The absorbance of the first is higher: 0.318 for the first, 0.24 for the second.

B7 gave an absorbance of 0.228.

target: FN2; assay: ELISA
Experimental: as §2

Compared with B2, B3 is lower in absorbance: 0.238 for the first, 0.227 for the second.

First: B8
Second: B4
The absorbance of the first is lower: 0.22 for the first, 0.225 for the second.

Going from B6 to B9, the absorbance falls from 0.36 to 0.242.

B7 gave an absorbance of 0.235.

target: MBP; assay: ELISA
Experimental: as §2

Going from B2 to B8, the absorbance falls from 0.274 to 0.24.

Going from B4 to B5, the absorbance rises from 0.239 to 0.302.

Compared with B6, B9 is lower in absorbance: 0.402 for the first, 0.291 for the second.

B7 gave an absorbance of 0.231.

target: T7, human EphA4 extracellular domain-MBP-His protein (human); assay: ELISA
T7 construct: also called human EphA4 extracellular domain (ECD); Human EphA4 extracellular domain-MBP-His 10
Experimental: as §2

Going from B1 to B2, the absorbance falls from 1.42 to 1.26.

Going from B3 to B8, the absorbance rises from 1.35 to 1.42.

First: B4
Second: B5
The absorbance of the first is higher: 1.43 for the first, 1.29 for the second.

First: B6
Second: B9
The absorbance of the first is higher: 1.31 for the first, 1.24 for the second.

target: human EphA4 ligand binding domain-MBP-His protein (human, UniProt P54764 20-209; P0AEX9 29-392 = MBP); assay: ELISA
Experimental: as §2

First: B1
Second: B2
The absorbance of the first is higher: 1.43 for the first, 1.42 for the second.

First: B3
Second: B8
The absorbance of the first is lower: 1.32 for the first, 1.39 for the second.

Compared with B4, B5 is lower in absorbance: 1.32 for the first, 0.283 for the second.

Going from B6 to B7, the absorbance falls from 0.348 to 0.236.

target: T5, human EphA4 extracellular …; assay: ELISA; remark: another data set of the same source

With B1 the “EC50 (read off the curve)” value was roughly 0.01 nM.

target: T6, monkey EphA4 extracellular …; assay: ELISA; remark: another data set of the same source

B1 was tested, and the “EC50 (read off the curve)” value was roughly 0.01 nM.

target: T7, human EphA4 extracellular …; assay: SPR Biacore T200, EphA4 ECD-MBP-His captured by anti-His antibody, antibody as analyte, 1:1 model
Experimental: (§3) The binding affinity of KPEP11_04, KPEP11_08, KPEP11_10, and KPEP11_18 against human EphA4 was determined by the surface plasmon resonance method (SPR method) employing Biacore T200 (Cytiva). First, an anti-His antibody (Cytiva, 28-9950-56) was diluted to 10 μg/mL with the immobilizing buffer (10 mM sodium acetate, pH 4.5), and immobilized onto a sensor chip CM5 according to the protocol attached to Biacore T200. Immobilization was performed by the amine coupling method employing N-hydroxysuccinimide (NHS) and N-ethyl-N′-(3-dimethylaminopropyl) carbodiimide hydrochloride salt (EDC), and ethanolamine was employed for blocking (sensor chips or immobilizing reagents were all from Cytiva). Human EphA4 extracellular domain-MBP-His 10 was diluted with a running buffer HBS-EP+ (Cytiva), and pumped onto a flow cell for 120 seconds to allow capturing (captured amount of about 3 RU). […] At the end of each observation, 10 mM glycine hydrochloric acid pH 1.5 (60 seconds) and 3 M MgCl₂ (30 seconds) were added to regenerate the sensor chips. Fitting analysis by the 1:1 binding model employing the BIA evaluation software attached to the system was performed against the binding reaction curves obtained to calculate the binding affinity against human EphA4 (KD=kd/ka). The experiment described above was carried out three times, and the mean was calculated for each parameter.

In the case of B1, the Kd is reported as 0.416 nM and 0.382 nM.

B1 was tested, and the koff was 0.00128 s⁻¹ and 0.00137 s⁻¹ and 0.00127 s⁻¹.

B1 was tested, and the kon was 3.06e+06 M⁻¹ s⁻¹ and 3.32e+06 M⁻¹ s⁻¹ and 3.44e+06 M⁻¹ s⁻¹.

target: T7, human EphA4 extracellular …; assay: SPR Biacore T200, EphA4 ECD-MBP-His captured by anti-His antibody, antibody as analyte, 1:1 model, mean of three
Experimental: as §3

Work on B1 yielded a Kd of 0.389 nM.

B1 gave a koff of 0.00127 s⁻¹.
